Measurements published in patent US20120027773A1 (AVEO PHARMACEUTICALS, published 2012).
Blank lines part the entries; values can stand above or below the binder they belong to.

Columns and labels:
[1] = target: T1, recombinant human RON-ECD/mFc fusion protein (human, UniProt Q04912 25-957); test: SPR, Ab captured on anti-mouse IgG, 37 C, AVG
T1 construct: extracellular domain; also called rhRON ECD/mFc; rhRon ECD/mFc; not shown: THXmFC: Thrombin/His tag/Factor Xa-AJ mouse IgG-Fc
Experimental: (§1) The binding affinities and kinetics of binding of antibodies 07F01, 29B06, 17F06, 18H09, and 12B11 to recombinant human RON-ECD/mFc fusion protein (rhRON ECD/mFc) and recombinant human RON SEMA and PSI domains (rhRON SEMA+PSI) (R&D Systems, Inc., Minneapolis, Minn.) were measured by surface plasmon resonance, using a Biacore T100 instrument (GE Healthcare, Piscataway, N.J.).
(§2) Rabbit anti-mouse IgGs (GE Healthcare) were immobilized on carboxymethylated dextran CM4 sensor chips (GE Healthcare) by amine coupling, according to a standard protocol. Analyses were performed at 25° C. and 37° C., using PBS containing 0.05% surfactant P20 as running buffer. The antibodies were captured in individual flow cells at a flow rate of 10 μl/min. Injection time was varied for each antibody to yield an Rmax between 30 and 60 RU. 250 μg/mL mouse Fc were injected at 30 μl/min for 120 seconds to block non-specific binding of antibodies to Fc portion of the protein when needed. Buffer, rhRon ECD/mFc or rhRON SEMA+PSI diluted in running buffer was injected sequentially over a reference surface (no antibody captured) and the active surface (antibody to be tested) for 300 seconds at 60 μl/minute. The dissociation phase was monitored for up to 3600 seconds. The surface was then regenerated with two 60-second injections of 10 mM Glycine-HCl, pH 1.7, at a flow rate of 60 μl/min. The rhRON ECD/mFc or rhRON SEMA+PSI concentration range tested was 0.625 nM to 20 nM.
(§3) Kinetic parameters were determined using the kinetic function of the BIAevaluation software (GE Healthcare) with double reference subtraction. Kinetic parameters for each antibody, kₐ (association rate constant), kd (dissociation rate constant) and KD (equilibrium dissociation constant) were determined.

[2] = target: T2, recombinant human RON SEMA and PSI domains (human, UniProt Q04912 25-571); test: SPR, Ab captured on anti-mouse IgG, 37 C, AVG
T2 construct: domain: SEMA+PSI; Commercial protein (R&D Systems); also called rhRON SEMA+PSI; hRON SEMA+PSI
Experimental: as §1, §2

[3] = target: T3, human wild-type RON (cell surface) (human, UniProt Q04912 25-1400); test: FACS, 10 ug/ml antibody, PC3 cells, 4 C
T3 construct: whole, on cells; also called Human RON; wt RON
Experimental: (§4) Binding to cell surface wild-type RON and delta 160 RON at 4° C. was determined for antibodies 07F01, 12B11, 17F06, 18H09, and 29B06, using FACS. Cells expressing wild-type RON (PC3), and cells expressing delta 160 RON (HT-29), were harvested using cell dissociation buffer (Invitrogen), washed twice with FACS buffer (0.5% BSA PBS) and treated with CytoQ Antibody diluent and FC receptor block (Innovex). Purified antibodies were diluted at a concentration of 10 μg/ml, in FACS buffer. Cells were incubated with 100 μl of antibody mix for one hour, washed with FACS buffer three times, and incubated for 45 minutes with goat anti-mouse PE conjugated antibody (Jackson Immunoresearch Laboratories). Cells were washed three times with FACS buffer, resuspended in 300 μl of FACS buffer and analyzed using a Beckman Coulter Cytomics FC 500 FACS instrument.

[4] = target: T1, recombinant human RON-ECD/mFc fusion …; test: SPR, Ab captured on anti-mouse IgG, 25 C, AVG
Experimental: as §1, §2, §3

[5] = target: T1, recombinant human RON-ECD/mFc fusion …; test: SPR, Ab captured on anti-mouse IgG, 25 C, AVG; * Outside instrument limit of detection
Experimental: as §1
(§5) Rabbit anti-mouse IgGs (GE Healthcare) were immobilized on carboxymethylated dextran CM4 sensor chips (GE Healthcare) by amine coupling, according to a standard protocol. Analyses were performed at 25° C. and 37° C., using PBS containing 0.05% surfactant P20 as running buffer. The antibodies were captured in individual flow cells at a flow rate of 10 μl/min. Injection time was varied for each antibody to yield an Rmax between 30 and 60 RU. 250 μg/mL mouse Fc were injected at 30 μl/min for 120 seconds to block non-specific binding of antibodies to Fc portion of the protein when needed. […] The dissociation phase was monitored for up to 3600 seconds. […]
as §3

[6] = target: T2, recombinant human RON SEMA and PSI …; test: ECL competition, MSP binding to coated hRON SEMA+PSI; competitor MSP; average
Experimental: (§6) The biochemical neutralization assay measures inhibition of MSP binding to hRON by antibodies in hybridoma supernatants, using electrochemiluminescence (ECL). MA2400 96-well high binding plates (Meso Scale Discovery) were coated with 25 μl of 0.42 μg/mL hRON SEMA+PSI (an N-terminal portion of the ECD of hRON; R&D Systems) in PBS for one hour at room temperature with agitation. The plates were washed four times with PBS+0.1% Tween-20 (PBST), and blocked with 150 μl of charcoal-stripped fetal bovine serum (FBS) (Gibco). The hybridoma supernatant were added and incubated for 45 minutes at room temperature. After incubation, 5 μl of MSP (3 μg/mL) in charcoal stripped FBS was added to each well, and incubated for 45 minutes. The plate was washed four times with PBST, and 25 μl of 1 μg/mL biotinylated anti-MSP antibody (R&D Systems) was added to the plates for one hour at room temperature with agitation. The plates were washed four times with PBST, and incubated with 25 μl of 1 μg/mL ST-streptavidin (Meso Scale Discovery) for one hour at room temperature with agitation. The plates were washed four times with PBST, and 150 μl read buffer (Meso Scale Discovery) was added to each well before the plates were analyzed on a Sector Imager 2400 (Meso Scale Discovery) instrument. Antibodies 07F01, 18H09 and 29B06 each blocked MSP binding to hRON SEMA+PSI in this neutralization assay.
(§7) Antibodies 07F01, 12B11, 17F06, 18H09, and 29B06 were tested for inhibition of MSP binding to hRON SEMA+PSI, as measured by electrochemiluminescence (ECL) assay as described in Example 3. The antibodies (concentration range: 0.006-10 μg/mL) were incubated for 45 minutes at room temperature.

[7] = target: T2, recombinant human RON SEMA and PSI …; test: SPR, Ab captured on anti-mouse IgG, 25 C, AVG
Experimental: as §1, §2

[8] = target: T3, human wild-type RON (cell surface); test: cell-based or functional assay
[9] = target: T4, delta 160 RON variant (cell surface) (human, UniProt Q04912 25-1400); test: FACS, 10 ug/ml antibody, HT-29 cells, 4 C
T4 construct: whole, on cells; Splice variant; also called delta 160 variant
Experimental: as §4

[10] = target: T1, recombinant human RON-ECD/mFc fusion …; test: SPR, Ab captured on anti-mouse IgG, 25 C, AVG; * Outside instrument limit of detection; 25 C, AVG of n=3
Experimental: as §1, §5, §3

[11] = target: T3, human wild-type RON (cell surface); test: cell-based or functional assay; remark: listed apart in the source
[12] = target: T2, recombinant human RON SEMA and PSI …; test: SPR, Ab captured on anti-human IgG Fc, 25 C
[13] = target: T2, recombinant human RON SEMA and PSI …; test: SPR, Ab captured on anti-human IgG Fc, 37 C; 37 C, n=1
[14] = target: T2, recombinant human RON SEMA and PSI …; test: SPR, Ab captured on anti-human IgG Fc, 37 C
[15] = target: T1, recombinant human RON-ECD/mFc fusion …; test: SPR, Ab captured on anti-mouse IgG, 37 C, n=1
Experimental: as §1, §2, §3

[16] = target: T2, recombinant human RON SEMA and PSI …; test: ECL competition assay: antibody titrated on plate-coated hRON SEMA+PSI; blocked ligand MSP, detected with biotinylated anti-MSP antibody
Experimental: as §6, §7

[17] = target: T2, recombinant human RON SEMA and PSI …; test: ECL competition, MSP binding to coated hRON SEMA+PSI; competitor MSP; average n=3
Experimental: as §6, §7

Kd [1]: 210 pM
koff [1]: 2.4e-05 s⁻¹
kon [1]: 140000 M⁻¹ s⁻¹
Kd [2]: 130 pM
koff [2]: 2.1e-05 s⁻¹
kon [2]: 260000 M⁻¹ s⁻¹
PC3 % cell surface binding [3]: 99.1%
kon [4]: 170000 M⁻¹ s⁻¹
Kd [5]: < 58.8 pM
Maximum Neutralization (%) [6]: 7.9%
Kd [7]: 9 pM
koff [7]: 1.4e-06 s⁻¹
kon [7]: 190000 M⁻¹ s⁻¹
Percent Inhibition of MSP-induced HPAF-II cell migration, antibody 2 ug/ml [8]: 70.7%
HT-29 % cell surface binding [9]: 99%
koff [10]: < 1e-05 s⁻¹
Mean IC50 (nM), inhibition of MSP-dependent ERK phosphorylation, T47D cells [11]: 0.96 nM
B1: 17F06 (antibody, mouse IgG2a, V domains shown)
VH: EVKLVESGGGLVKPGASLKLSCAASGFIFSSYGMSWVRQTSDKRLEWVASISSGGGTTYYLDTVKGRFTISRENAKDTLYLQMSGLKSEDTALYYCTRGQWLLKFAYWGQGTLVTVSA
VL: QLVLTQSSSASFSLGASAKLTCTLSSQHTTYTIEWYQQLPLKPPKYVMELKKDGSHSTGVGIPDRFSGSSSGADRYLTISNIQPEDEAIYICGVGETIEDQFVYVFGGGTKVTVLG
notes: Murine hybridoma monoclonal, IgG2a/lambda (IGLC2); also called antibody 17F06

Kd [12]: 1100 pM
koff [12]: 0.0026 s⁻¹
kon [12]: 2.3e+06 M⁻¹ s⁻¹
kon [13]: 1.9e+08 M⁻¹ s⁻¹
Kd [14]: 1000 pM
koff [14]: 0.19 s⁻¹
B2: RON6 (antibody, V domains shown)
VH: QVQLVQSGPEVKKSGSSVKVSCKASGGTFSSDAITWVRQAPGQGLEWMGGIIPILGMANYAQKFQGRVTITADKSTNTAYMELSSLRSEDTAVYFCARVADYYGLGTYYWYFDLWGRGTLVTVSS
VL: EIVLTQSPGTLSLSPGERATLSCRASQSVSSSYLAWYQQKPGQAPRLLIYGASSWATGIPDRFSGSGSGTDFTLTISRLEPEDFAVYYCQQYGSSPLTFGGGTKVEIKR

Kd [2]: 220 pM
koff [2]: 0.00012 s⁻¹
kon [2]: 580000 M⁻¹ s⁻¹
PC3 % cell surface binding [3]: 99%
Kd [4]: 220 pM
koff [4]: 5.7e-05 s⁻¹
kon [4]: 330000 M⁻¹ s⁻¹
Maximum Neutralization (%) [6]: 86.9%
Kd [7]: 8.6 pM
koff [7]: 3.8e-06 s⁻¹
kon [7]: 440000 M⁻¹ s⁻¹
Kd [15]: 400 pM
koff [15]: 0.0007 s⁻¹
kon [15]: 1.8e+06 M⁻¹ s⁻¹
Percent Inhibition of MSP-induced HPAF-II cell migration, antibody 2 ug/ml [8]: 107%
HT-29 % cell surface binding [9]: 98.3%
IC50 (read off the curve) [16]: ~700 pM
IC50 [17]: 910 pM
Mean IC50 (nM), inhibition of MSP-dependent ERK phosphorylation, T47D cells [11]: 0.71 nM
B3: 18H09 (antibody, mouse IgG1, V domains shown)
VH: EVQLQESGPSLVKPSQTLSLTCYVTGDSITSDYWNWIRKFPGNKLEYMGYISYSGSTYYNPSLKSRISITRDTSKNQFYLRLNSVTTEDTATYYCARTHILTIAYWGQGTLVTVSA
VL: QAVVTQESALTTSPGETVTLTCRSSAGAVTTSNFANWVQEKPDHLFTGLIGDTNIRAPGVPARFSGSLIGDKAALTITGAQTEDEAIYFCALWYSNHYWVFGGGTKLTVLG
notes: Murine hybridoma monoclonal, IgG1/lambda (IGLC1); also called antibody 18H09
